# T1: engrailed homeodomain (enHD) (UniProt P02836 456-509)
# T1 sequence: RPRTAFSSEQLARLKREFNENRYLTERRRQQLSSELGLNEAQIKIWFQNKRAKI
# B1: cognate DNA (same as X-ray structure) (dsDNA)
# DNA 1: TTTTGCCATGTAATTACCTAA
# DNA 2: ATTAGGTAATTACATGGCAAA
# Experiments:
# Conditions in all cases: protein: recombinant; tags: none (untagged, or SUMO/His tag cleaved by ULP1); 15N or 13C,15N labelled for NMR; 5' overhang 1 nt on each strand, 20 bp
# [1] = molecular target: T1, engrailed homeodomain (enHD); test: NMR titration (1H-15N HSQC, A460 and A507); 300 mM NaCl, 20 mM acetate pH 4, 298 K; NMR: 200 uM enHD, 298 K, 5% D2O; 20 mM MES pH 6 + 25 mM NaCl; 20 mM acetate pH 4 + 300 or 700 mM NaCl; 25 mM phosphate pH 6.8 + 50 mM NaCl. CD: 15 uM enHD and DNA, 20 mM MES pH 6, 25 mM NaCl, room temperature
# [2] = molecular target: T1, engrailed homeodomain (enHD); test: NMR titration (1H-15N HSQC, R456 side-chain NH); 700 mM NaCl, 20 mM acetate pH 4, 298 K; NMR: 200 uM enHD, 298 K, 5% D2O; 20 mM MES pH 6 + 25 mM NaCl; 20 mM acetate pH 4 + 300 or 700 mM NaCl; 25 mM phosphate pH 6.8 + 50 mM NaCl. CD: 15 uM enHD and DNA, 20 mM MES pH 6, 25 mM NaCl, room temperature
# [3] = molecular target: T1, engrailed homeodomain (enHD); test: NMR titration (1H-15N HSQC, W501 and A460); 50 mM NaCl, 25 mM phosphate pH 6.8, 298 K; stated as sub-uM, too tight to evaluate Kd; NMR: 200 uM enHD, 298 K, 5% D2O; 20 mM MES pH 6 + 25 mM NaCl; 20 mM acetate pH 4 + 300 or 700 mM NaCl; 25 mM phosphate pH 6.8 + 50 mM NaCl. CD: 15 uM enHD and DNA, 20 mM MES pH 6, 25 mM NaCl, room temperature
binder,measurement,setting,value
B1,Kd,[1],95 ± 20 µM
same,Kd,[2],170 ± 2 µM
same,Kd,[3],< 1 µM

# Reference: article PMC8910618, “Cognate DNA Recognition by Engrailed Homeodomain Involves A Conformational Change Controlled via An Electrostatic-Spring-Loaded Latch”
